Measurements published in article PMC11804868 (ACS catalysis, 2024).

Target: the molecule itself
Assay: SEC

B1: PikAIV TE wild type (thioesterase domain of the pikromycin polyketide synthase PikAIV) (domain or fragment, Streptomyces venezuelae ATCC 15439, UniProt Q9ZGI2 1057-1346, looked up)
chain: AGMFRALFRQAVEDDRYGEFLDVLAEASAFRPQFASPEACSERLDPVLLAGGPTDRAEGRAVLVGCTGTAANGGPHEFLRLSTSFQEERDFLAVPLPGYGTGTGTGTALLPADLDTALDAQARAILRAAGDAPVVLLGHSGGALLAHELAFRLERAHGAPPAGIVLVDPYPPGHQEPIEVWSRQLGEGLFAGELEPMSDARLLAMGRYARFLAGPRPGRSSAPVLLVRASEPLGDWQEERGDWRAHWDLPHTVADVPGDHFTMMRDHAPAVAEAVLSWLDAIEGIEGAGK
**Q.** For B1, which “stoichiometry N” value is on record?
**A.** 2
